Data from PMC4416878.

Key:
[1] = biological target: Golgi anti-apoptotic protein (GAAP) from vaccinia virus strain Evans, purified (vaccinia virus (VACV) strain Evans); assay: SEC
[2] = biological target: Golgi anti-apoptotic protein (GAAP) from camelpox virus, wild type, purified (camelpox virus (CMLV)); assay: SEC

Substance | percent of total protein in oligomeric states (% of total protein) [1] | percent of protein oligomeric [2] [%] | percent of total protein in oligomeric states (% of total protein) [2]
Golgi anti-apoptotic protein (GAAP) from vaccinia virus strain Evans, purified (natural protein) | 64 | – | –
Golgi anti-apoptotic protein (GAAP) from camelpox virus, wild type, purified (natural protein) | – | 84 | 87
